Target: ZIKV E protein ectodomain (UniProt A0A024B7W1 291-745)
Assay: ELISA

Chain of ZIKV E protein ectodomain (A0A024B7W1 291-745): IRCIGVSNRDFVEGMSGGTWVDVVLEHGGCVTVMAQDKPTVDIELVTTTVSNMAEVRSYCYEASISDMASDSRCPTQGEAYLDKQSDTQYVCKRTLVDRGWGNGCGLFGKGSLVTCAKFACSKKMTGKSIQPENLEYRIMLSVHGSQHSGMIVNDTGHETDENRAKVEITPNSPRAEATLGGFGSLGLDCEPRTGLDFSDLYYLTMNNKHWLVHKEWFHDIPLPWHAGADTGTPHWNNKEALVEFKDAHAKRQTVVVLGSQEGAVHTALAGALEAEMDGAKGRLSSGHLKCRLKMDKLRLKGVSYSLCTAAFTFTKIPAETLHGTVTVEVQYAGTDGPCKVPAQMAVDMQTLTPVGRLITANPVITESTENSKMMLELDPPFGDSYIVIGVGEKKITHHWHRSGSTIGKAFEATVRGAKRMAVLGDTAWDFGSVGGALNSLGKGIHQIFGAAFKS

Binder | EC50 [mg/L]
ZIKV-88 (antibody, V domains shown) VH: QVQLLESGGGVVQPGRSLRLSCVASGLTFSTSAMHWVRQAPGKGLEWVAVISYDGSYKFYADSVRDQFTISRDNSKTTLYLQMDGLTPEDTAVYYCARGYNDDSSGSYWYFDLWGRGTLVTVSS VL: QSVLTQPPSVSAAPGQKVTMSCSGSSSNIGSNFVSWYQQLPGTAPKVLIFDNNQRPSGIPDRFSGSKSGTSATLAITGLQPGDEAVYHCGTWDSSLTFAVFGGGTKLTVL | 0.07
ZIKV-204 (antibody, V domains shown) VH: QVTLRESGPALLKPTQTLTLTCTFSGFSLSTNETCVSWIRQPPGKALEWLALIDWDDDQYSSTSLAARLTVSKDTSKNQVVLTMTNVAPVDTATYYCALTRPTLTAQNGDKYYNYYYGMDVWGQGTLVTVSS VL: EIVLTQSPGTLSLSPGERATLSCRASQSVSSMYLAWYQQKRGQPPRLLIYGTFNRATGIPDRFSGSGSGTDFTLTISRLEPEDFAVYYCQQYGSSSFTFGGGTKVEIK | 0.048
ZIKV-19 (antibody, V domains shown) VH: QVQLVQSGPEVKKPGSSVKVSCKASGVSFNTYEISWVRQAPGQGLEWMGRIIPIFATPTYALKFQGRVTITTDESTTTGYMELSSLRSEDTAVYYCAGRPYGPGSWLPLDVWGQGTLVTVSS VL: DIVMTQSPSSLSASVGDRVTITCRASQGISSYLAWYQQKPGKLPKLLIYAASTLQSGVPSRFSGSGSGTDFTLTISSLQPEDVAAYYCQKYDSAPFTFGPGTKVDLK | 0.165
ZIKV-190 (antibody, V domains shown) VH: EVQLVESGGGLIQPGGSLRLSCAASGFTFSSYAMSWVRQAPGKGLEWVSAISGSGGSTYYADSVKGRFTISRDNSKNTLSLQMNSLRAEDTAVYYCARAFYYDFWTFDYWGQGTLVTVSS VL: QSALTQPRSVSGSPGQSVTISCTGTSSDVGGYNYVSWYQQHPGKAPKLMIYAVTKRPSGVPDRFSGSKSGNTASLTISGLQAEDEADYYCCSYAGSYTYVVFGGGTKLTVL | 0.082
ZIKV-195 (antibody, V domains shown) VH: QVQVVESGGGVVQPGRSLRLSCAASGFTFSSSAMHWVRQAPGKGLEWVAVISYDGSNKYYGDSVKGRFTISRDNSKNTLYLQMHSLRAEDTAVYYCAKDRDAYNTVGYFAYYYGMDVWGQGTLVTVSS VL: QSVLTQPPSVSEAPRQRVTISCSGSSSNIGNNAVNWYQQLPGKAPKLLIYYDDLLPSGVSDRFSGSKSGTSASLAISGLQSEDEADYYCAAWDDSLTRYVFGTGTKVTVL | 0.695

Source: patent US11021533 (dated 2021)
